In publication PMC6281700, “Biochemical Characterization of Kluyveromyces lactis Adenine Deaminase and Guanine Deaminase and Their Potential Application in Lowering Purine Content in Beer” (Frontiers in Bioengineering and Biotechnology, 2018):

Experiments:
purified protein [1] = substrate: Nc1ncnc2nc[nH]c12; experiment: purified protein; assay type: biochemical, Kluyveromyces lactis; settings: 100 mM potassium phosphate, pH 6.0, 30°C
purified protein [2] = substrate: Nc1nc2nc[nH]c2c(=O)[nH]1; experiment: purified protein; assay type: biochemical, Kluyveromyces lactis; settings: 100 mM phosphate, pH 7.0, 25°C

Protein	Km (purified protein [1]) [µM]	kcat (purified protein [1]) [s⁻¹]	kcat/Km (purified protein [1]) [M⁻¹ s⁻¹]	Km (purified protein [2]) [µM]	kcat (purified protein [2]) [s⁻¹]	kcat/Km (purified protein [2]) [M⁻¹ s⁻¹]
KlacADA (Kluyveromyces lactis NRRL Y-1140) (protein, full length, N-terminal 6xHis (pET28c NdeI/XhoI), E. coli BL21(DE3); 46 kDa monomer; gene at chromosome E 2,064,516-2,065,583, no introns (1068 bp, about 355 residues)) MAKFECTDEVTNFLTELPKCEHHLHLEGTLEPELLFQLVERNGVQLPGTFPKTVNELHVIYNNFADLQDFLNYYYIGCNVLLSEDDFFELAWSYFKRVSTQGLRHAEVFYDPQSHTSRGISLEVVTKGFERACAKAQEEFNISTKLIMCLLRHCPVEECMDTVKSAKSLIESGVIDGLGLDSSERPFPPELFVECYQLAKSYNKELQLTAHAGEEGDPSFVTNTLDLLETTRIDHGVRSIEDAELIKRLAAQKVMLTLCPLSNVKLQVVKDVSELPLQEFLDNDVPFSINSDDPAYFGGYILQNYLEVYSRFGWSKAVWAKIARQSIEGSWCDPKRKQELLSEVSEVVNKYVNLP	680 ± 4.6	8.1 ± 1.3	11000	–	–	–
KlacGDA (Kluyveromyces lactis NRRL Y-1140) (protein, full length, N-terminal 6xHis (pET28c NdeI/XhoI), E. coli BL21(DE3); 106 kDa dimer; gene at chromosome D 1,643,703-1,645,193 (1491 bp, about 496 residues)) MAPVTINMVKSEESFIDEPFHPEGVKIIVHYGNLIDTPELGQLRIRLKCAVGICSTSGVILFIEEGCDDPVIAALNYDRYLKDIDIHVIFNSVSDPAGKDSFYFPGFVDTHIHASQYPNCGIFGNSTLLDWLDTYTFPLESSLNDENIAALTYDAVISQTLKHGTTCASYFTTIDSNSSKIMADLCKSKGQRAFIGKVCMNQHSPSYYQETIEECKDASLDLIEYILKDLNSPLIKPIITPRFAITCSSALMDSLSEVAEEFDLPIQTHLNENDSEIAFVKELFKDCHSYTDVYHKHGLLNGKTVLAHCIHLEDSEIELLKKSSAGISHCPISNSSLTSGECRVKELLNYGLKVSLGSDVSGGFTVSILENARQALLVSRHRAMSVEDPERKEECKLSVAEVLYLATMGGAKVLNLSDKIGSFDVGKEFDAQLIDLSTKGSNVSIFPWQKVTNDKIQPNGKDRIKLENIVAKWLFNGDDRNVKSVWVRGKLCHQNL	–	–	–	83 ± 2.7	7.3 ± 1.2	87000
